For this assay, the target named is T1, insulin-degrading enzyme (recombinant human IDE) (human, UniProt P14735 1-1019).
T1 construct: insulin-degrading enzyme, human, recombinant; source: recombinant, purified from bacteria [33]
The assay is described as follows: enzyme inhibition assay (Ki); recombinant human IDE (nominal 1 nM); dose-response of the hydrolysis of IDE substrates (FRET1, SP1, FAβB, 125I-insulin, or insulin by HTRF); the substrate used for the Ki values in the text is not stated. The note with it: both partners purified.

Broadly, the Ki is a measure of affinity in units of concentration, obtained from inhibition or displacement.

Square brackets hold non-standard residues; d marks the D form. Ends that are not written are not given here. 2Nal = N[C@@H](Cc1ccc2ccccc2c1)C(=O)O; d2Nal = N[C@H](Cc1ccc2ccccc2c1)C(=O)O

Consider [2Nal]RWE (also: N-terminal hydroxamic acid moiety, structure not given here) [Ii1 (IDE inhibitor 1), conventional peptide hydroxamate incorporating 2-Nap at the P1' position], for which the Ki was ~1.7 nM.

B1: retro-inverso peptide hydroxamate Xaa-Arg-Tyr with 2-naphthylalanine (2-Nap) at P1' (peptide)
chain: [d2Nal]-[dR]-[dY]
modifications: also: retro-inverso backbone, hydroxamic acid next to P1', P1' said to be a β-amino acid
For the molecule B1, the “fold gain in potency (relative Ki) against Phe at P1'” value was ~100 fold.
